Numbering of substitutions follows the chain as printed.

What all share (test): ITC
In one assay the target is T1, AnkG R1-24 M348Q (Rattus norvegicus).
T1 chain: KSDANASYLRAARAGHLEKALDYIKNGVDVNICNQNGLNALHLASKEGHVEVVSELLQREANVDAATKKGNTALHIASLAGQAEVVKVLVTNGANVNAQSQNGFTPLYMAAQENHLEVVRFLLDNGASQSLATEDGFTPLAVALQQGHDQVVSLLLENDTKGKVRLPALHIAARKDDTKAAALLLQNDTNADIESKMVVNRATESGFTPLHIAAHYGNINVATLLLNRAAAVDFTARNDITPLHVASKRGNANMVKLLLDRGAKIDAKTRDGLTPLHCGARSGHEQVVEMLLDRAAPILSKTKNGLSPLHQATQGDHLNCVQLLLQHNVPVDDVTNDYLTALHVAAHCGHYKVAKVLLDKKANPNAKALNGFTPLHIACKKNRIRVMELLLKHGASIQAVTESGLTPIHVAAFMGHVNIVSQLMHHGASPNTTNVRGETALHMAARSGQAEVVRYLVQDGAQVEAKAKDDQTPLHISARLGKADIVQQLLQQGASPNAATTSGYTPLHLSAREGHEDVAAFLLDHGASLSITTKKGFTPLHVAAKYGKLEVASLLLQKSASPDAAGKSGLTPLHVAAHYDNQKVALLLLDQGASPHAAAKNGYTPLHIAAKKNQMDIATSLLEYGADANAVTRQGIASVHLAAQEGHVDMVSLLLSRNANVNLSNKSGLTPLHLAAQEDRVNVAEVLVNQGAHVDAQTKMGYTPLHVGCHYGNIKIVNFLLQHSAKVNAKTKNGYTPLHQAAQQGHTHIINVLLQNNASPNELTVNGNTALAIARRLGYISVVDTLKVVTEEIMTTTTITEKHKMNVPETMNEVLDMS

A further assay deals with T2, AnkG R1-24 R318A, Q351A (Rattus norvegicus).
T2 chain: T1 chain with R281A, Q311M, Q314A

A further assay has as its target T3, AnkG R1-24 H384A (Rattus norvegicus).
T3 chain: T1 chain with Q311M, H347A

B1: Nfasc ankyrin-binding domain (ABD, residues 1187-1214) (domain or fragment, UniProt P97685 1187-1214, looked up)
chain: SDDSLVDYGEGGEGQFNEDGSFIGQYTV
notes: also called Nfasc ABD; source: E. coli BL21 (DE3), purified (Ni-NTA, size-exclusion chromatography)
Turning to B1, the equilibrium dissociation constant (Kd) (commonly the equilibrium constant for the complex coming apart) with AnkG R1-24 M348Q worked out at 1800 nM; with AnkG R1-24 R318A, Q351A, 670 nM; in the assay with AnkG R1-24 H384A, 1700 nM.

Source of the values: publication PMC9396398, “Crystal structure of Ankyrin-G in complex with a fragment of Neurofascin reveals binding mechanisms required for integrity of the axon initial segment” (The Journal of Biological Chemistry, 2022).
